The source of these data is the supplement of paper PMC9170038.

The test system of this series is MS2 coat protein. The series is described as follows: apparent KD of MS2 coat protein; designed switch direction (-1 OFF switch, 1 ON switch): -1; higher = weaker reporter binding. The essentials: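 Designed RNA switches were transcribed on Illumina chips by stalled E. coli RNA polymerase and titrated with SNAP-549-labelled MS2 coat protein from 0.7 or 1.5 nM, doubling to 3 µM. Step length ran from 0.8–1.5 h at the lowest concentration to 10–20 min at the highest. The apparent KD is the median over clusters for each design, from curve-fitted normalised cluster fluorescence.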

Setting [1] is: Eterna round: R95, input ligand: FMN 200 uM.
Where [2] appears, read: Eterna round: R95, input ligand: microRNA oligo, concentration not stated.
Where [3] appears, read: Eterna round: R95, input ligand: none.
Setting [4] is: input ligand: microRNA oligo, concentration not stated.

Regarding “AUGAAGUAAGGAUAUACAUGAGGAUCACCCAUGUAAAGAAAAGUAAUGGGAGUAAGAAGUAGAAGGUACGAGAA [JR_Exclu3_Sub061] (puzzle: Exclusion 3)”, the “apparent KD of MS2 coat protein” value under setting [1] was found to be 53.4 nM, the “apparent KD of MS2 coat protein” value under setting [2] was 48.2 nM and the “apparent KD of MS2 coat protein” value under setting [3] worked out at 54.1 nM.

For the sequence “AUGAGCAGACGGAGAUCCAACAUGAGGAUCACCCAUGUCUCAAAAGCUUUUUGCUCAUCUUAUUGUACCUUGGUGCA [Mat - Sensor v3 - turn-off var 1 - JL Mod - D17] (puzzle: Sensor v3, turn-off variant 1)”, the “apparent KD of MS2 coat protein” value is, setting by setting: under setting [1], 172 nM; under setting [2], 16.5 nM; under setting [3], 213 nM.

Take “AUGAGCAGACGGAGAUCCAACAUGAGGAUCACCCAUGUCUCAUAAGCUUUUUGCUCAUCUUAUUGUACCUUGGUGCU [Mat - Sensor v3 - turn-off var 1 - JL Mod - D19] (puzzle: Sensor v3, turn-off variant 1)”: the “apparent KD of MS2 coat protein” value by setting is: under setting [1], 191 nM; under setting [2], 11.5 nM; under setting [3], 251 nM.

Regarding “AUGAGGUUAGGAUAUACAUGAGGAUCACCCAUGUUGGAGAAGGAAAUGUAAGUAGCGAGUAGAAGGAACGGAGC [JR_Exclu3_Sub059] (Eterna round: R96, puzzle: Exclusion 3)”, the “apparent KD of MS2 coat protein” value reads like this: (input ligand: FMN 200 uM) 48.6 nM; under setting [4], 40.4 nM; (input ligand: none) 49 nM.

Consider “AUGAGGUUAGGAUAUACAUGAGGAUCACCCAUGUUGGAGAAGGAAAUGUAAGUAGCGAGUAGAAGGAACGGAGC [JR_Exclu3_Sub059] (puzzle: Exclusion 3)”, for which the “apparent KD of MS2 coat protein” value under setting [2] was 44.1 nM.

Regarding “AUGAUACAUGAGGAUCACCCAUGUUAGGAUAUACGCAUGCAUGCAUGCAUGCAUGCAAGUAGAAGGAACCAUGC [Design #2] (Eterna round: R97, puzzle: Exclusion 1)”, the “apparent KD of MS2 coat protein” value was determined as 56.8 nM (input ligand: FMN 200 uM) and 48.2 nM (input ligand: none).

Consider “AUGCUCCGUGUAGGAUAUCGCCGCACCACUCGGCGAGAAGGACAUGAGGAUCACCCAUGUAUGUUAUUAUCACGUGUGGCGCGC [Design 43] (Eterna round: R96, puzzle: Exclusion NG 1)”, for which the “apparent KD of MS2 coat protein” value is, setting by setting: (input ligand: FMN 200 uM) 15.1 nM; under setting [4], 13 nM; (input ligand: none) 15.9 nM.

In the case of “AUGGGACAUGAGGAUCACCCAUGUCAGGAUAUGCUCUGAUGCGGCGUACGCCGUGCUAGCAGAAGGGACUACCU [EX1 C.19] (Eterna round: R97, puzzle: Exclusion 1)”, the “apparent KD of MS2 coat protein” value runs as follows: (input ligand: FMN 200 uM) 29 nM; (input ligand: none) 28 nM.

As for “AUGGGUCCUCACGGAGCUACAUGAGGAUCACCCAUGUGGAUUGAGGAUAUCGACAGCCGACGGCUCGAGAAGGCAGUUUACUGU [Ex NG3 #96] (Eterna round: R96, puzzle: Exclusion NG 3)”, the “apparent KD of MS2 coat protein” value was 35 nM (input ligand: FMN 200 uM), 23.2 nM under setting [4] and 26.4 nM (input ligand: none).

Take “AUGGGUCGGGAGGAUAUUCGGGCUCAUGGGCUUGGAGAAGGCUCGACAUGAGGAUCACCCAUGUAAGUGUUCUU [-25, -23.1 kcal, A 22%] (Eterna round: R97, puzzle: Exclusion 6)”: the “apparent KD of MS2 coat protein” value is, setting by setting: (input ligand: FMN 200 uM) 550 nM; (input ligand: none) 32.2 nM.

For the sequence “AUGGUCCGAGGAUAUAUUAUGUGAUACAUGAGGAUCACCCAUGUUAUAUGAUGGAUGUUAGUAGAAGGCGGACUAC [salish99_ex5_r3_002] (puzzle: Exclusion 5)”, the “apparent KD of MS2 coat protein” value by setting is: under setting [1], 89.3 nM; under setting [2], 82.2 nM; under setting [3], 103 nM.

“AUGGUUCGGUCAGGAUAUCGUAGAUUGAAUAGUAUGAUUUACAUGAGGAUCACCCAUGUUACAUACGAGAAGGGACCGAAUCAU [JR_ExcNG2_Sub024] (Eterna round: R96, puzzle: Exclusion NG 2)”: the “apparent KD of MS2 coat protein” value under setting [4] came out at 10.4 nM.

Consider “AUGUACCGGUGAGGAUAUUUAUAAUAGAGCUUUAUGAUAUACAUGAGGAUCACCCAUGUUACUUUAAAGAAGGCAUCGGAUUAA [Mat - Exclusion NG 2 - Mod of JL - D91] (Eterna round: R96, puzzle: Exclusion NG 2)”, for which the “apparent KD of MS2 coat protein” value by setting is: (input ligand: FMN 200 uM) 15.3 nM; under setting [4], 15.3 nM; (input ligand: none) 21.2 nM.

Take “AUGUGACAUGAGGAUCACCCAUGUCAGGAUAUUUCCAAAAUAAAAUAAAACCGCGUGGAAAGAAGGGACGUGGC [EX1 A.4] (Eterna round: R97, puzzle: Exclusion 1)”: the “apparent KD of MS2 coat protein” value reads like this: (input ligand: FMN 200 uM) 27.4 nM; (input ligand: none) 21.9 nM.

Take “AUGUGCACGCUGCGGUCCUACAUGAGGAUCACCCAUGUGGUCUGGUGGCGUGGGUCACCGGACUUGGCUCGUCUUGA [salish99_S_TOV1_R5_055] (Eterna round: R97, puzzle: Sensor, turn-off variant 1)”: the “apparent KD of MS2 coat protein” value is 56 nM (input ligand: FMN 200 uM) and 51.9 nM (input ligand: none).

Regarding “AUGUGCACGCUGCGGUCCUACAUGAGGAUCACCCAUGUGGUCUGGUGGCGUGGGUCACCGGACUUGGCUCGUCUUGU [salish99_S_TOV1_R5_056] (Eterna round: R97, puzzle: Sensor, turn-off variant 1)”, the “apparent KD of MS2 coat protein” value is, setting by setting: (input ligand: FMN 200 uM) 33.7 nM; (input ligand: none) 40.1 nM.

Consider “AUGUGCACGCUGCGGUCCUACAUGAGGAUCACCCAUGUGGUCUGGUGGCGUGGGUCGCCGGACUUGGCUCGUCUUGG [salish99_S_TOV1_R5_031] (Eterna round: R97, puzzle: Sensor, turn-off variant 1)”, for which the “apparent KD of MS2 coat protein” value reads like this: (input ligand: FMN 200 uM) 15.6 nM; (input ligand: none) 15.9 nM.

With “AUGUGCUGCUAAGGAUAUGUGAACUGUUUCCGAAUAGAAGGUAGCUAUACAUGAGGAUCACCCAUGUACGUGAACCGAGUAAAA [Eternabot solution 20] (Eterna round: R96, puzzle: Exclusion NG 1)”, the “apparent KD of MS2 coat protein” value worked out at 20 nM (input ligand: FMN 200 uM), 19 nM under setting [4] and 24.6 nM (input ligand: none).

With “AUGUUGCGAGGAUAUAUAAGGGUAUAUUAAUAAGAUAUGGAACAUGAGGAUCACCCAUGUAGAAGGUGCAUAAC [JR_Ex2_Sub041] (Eterna round: R97, puzzle: Exclusion 2)”, the “apparent KD of MS2 coat protein” value (input ligand: FMN 200 uM) was 45.6 nM and the “apparent KD of MS2 coat protein” value (input ligand: none) came to 33.6 nM.

In the case of “AUGUUGCGAGGAUAUAUAAGGGUAUAUUCAUAAGAUAUGGAACAUGAGGAUCACCCAUGUAGAAGGUGCAUAAC [JR_Ex2_Sub042] (Eterna round: R97, puzzle: Exclusion 2)”, the “apparent KD of MS2 coat protein” value (input ligand: FMN 200 uM) came to 200 nM and the “apparent KD of MS2 coat protein” value (input ligand: none) came out at 46.2 nM.

Take “AUGUUUGUAGUGAGGAUAUCGUUGAGGAAGAGGAUCGAGAAGGCACAUGAGGAUCACCCAUGUAAGAUGUGGUA [JR_BMOE4_Sub081] (puzzle: Brourd's mod of Exclusion 4)”: the “apparent KD of MS2 coat protein” value was found to be 69.9 nM under setting [1], 61.2 nM under setting [2] and 55.5 nM under setting [3].

“AUUAAACGUGUAGGAUAUGCGUGGCGAAGCUAUGCAGAAGGACAUGAGGAUCACCCAUGUUCUAGCGUCUGCGUACAGAUGCUA [JL eng1 1.35 mod 5] (Eterna round: R96, puzzle: Exclusion NG 1)”: the “apparent KD of MS2 coat protein” value reads like this: (input ligand: FMN 200 uM) 25.1 nM; under setting [4], 11.4 nM; (input ligand: none) 16.3 nM.

As for “AUUAAAUAAGGAUAUACAUGAGGAUCACCCAUGUGUAGCAAGGUGUUGCGAUCCGCAAGUAGAAGGUGUAUAAU [Eternabot (L2) Solution 2] (Eterna round: R97, puzzle: Exclusion 3)”, the “apparent KD of MS2 coat protein” value worked out at 49.6 nM (input ligand: FMN 200 uM) and 32 nM (input ligand: none).

For the sequence “AUUAAUGUCAAAGGAUAUCAGCACGUUUAGUGCUGAGAAGGUUGAACAUGAGGAUCACCCAUGUAGAUCAUUAAUAAUUUAAUU [ENG1/10-B1] (Eterna round: R96, puzzle: Exclusion NG 1)”, the “apparent KD of MS2 coat protein” value is, setting by setting: (input ligand: FMN 200 uM) 23.5 nM; under setting [4], 18.9 nM; (input ligand: none) 18.2 nM.

Consider “AUUAAUUGUCAGAUGGGUGACAUGAGGAUCACCCAUGUCACAAGCUUUUUGCUCGUCUUAUAAUUAACCCAUCUGAC [Stov1/11-A2] (Eterna round: R97, puzzle: Sensor, turn-off variant 1)”, for which the “apparent KD of MS2 coat protein” value is, setting by setting: (input ligand: FMN 200 uM) 14.1 nM; (input ligand: none) 13.3 nM.

Turning to “AUUACUAACACGAAAGUGUUAGUACAAUAAGCUUGUGAAACAUGAGGAUCACCCAUGUCCUCAUAAGCUCGUCUUAA [salish99_TOv2_r3_010] (puzzle: Sensor v3, turn-off variant 2)”, the “apparent KD of MS2 coat protein” value under setting [1] is 14 nM, the “apparent KD of MS2 coat protein” value under setting [2] is 217 nM and the “apparent KD of MS2 coat protein” value under setting [3] came out at 11.9 nM.

With “AUUAGAUGAGGAUAUACAUGGUUGCGGGUGCGGCAGGAUCUACAUGAGGAUCACCCAUGUAGAAGGCAUGUAUC [EX2 C.22] (Eterna round: R97, puzzle: Exclusion 2)”, the “apparent KD of MS2 coat protein” value came out at 16.3 nM (input ligand: FMN 200 uM) and 13.8 nM (input ligand: none).

Turning to “AUUAGCGUAGGAUAUUGAUACAUGUACAUGAGGAUCACCCAUGUGAGGUGAGUCUUGGAUUAAGAAGGGCGAAGAA [EX5 #37] (Eterna round: R97, puzzle: Exclusion 5)”, the “apparent KD of MS2 coat protein” value is, setting by setting: (input ligand: FMN 200 uM) 1080 nM; (input ligand: none) 1270 nM.

Regarding “AUUAGUAUCUAGGAUAUCUAGUACAUAGUAUCUAGAGAAGGAGAUACAUGAGGAUCACCCAUGUUCUGUGUUCU [Exclusion 6 - 1:d] (puzzle: Exclusion 6)”, the “apparent KD of MS2 coat protein” value under setting [2] came out at 20.3 nM.

In the case of “AUUAUAAAUGUAGGAUAUCUGCACGAUUAGUGCAGAGAAGGACAUGAGGAUCACCCAUGUAGAUCAAUAAUAAUUAAUUUAAUU [ENG1/5-B1] (Eterna round: R96, puzzle: Exclusion NG 1)”, the “apparent KD of MS2 coat protein” value (input ligand: FMN 200 uM) was determined as 184 nM, the “apparent KD of MS2 coat protein” value under setting [4] was found to be 34 nM and the “apparent KD of MS2 coat protein” value (input ligand: none) was 39.8 nM.
